Source: patent US20240076315A1, “KHL POLYPEPTIDE, AND USE THEREOF IN PREPARATION OF TABP-EIC CELL” (priority 2021, published 2024)
No end group written: not given here.

What was measured:
PSMA = PSMA (Homo sapiens, UniProt Q04609); assay: Phage display peptide library (Ph.D.-12) screening for peptide binding to PSMA; details: three rounds of panning, Ph.D.-12 phage display library
Experimental: The present disclosure uses the Ph.D.-12 phage display peptide library kit to screen peptide KHL that specifically binds to PSMA.
Random twelve peptide phage display library: 100 μL. 1.5×10^13 pfu/mL, stored in TBS solution containing 50% glycerol, complexity-2.7×10^9 transformants-28gIII sequencing primers: 5′-HOGATTGGGATTTGCTAACAAC-3′, 100 pmol, 1 pmol/μL-96 g III sequencing primer: 5′-HOCCTCATATAGTTAGCGTAGCGTAACG-3′, 100 pmol/1 pmol/μL; E. Coli ER2738 Host bacterium F′laclq Δ(lacZ) M15 proA+B+zzf:: Tn10 (TetR)/fhuA2 supE thi Δ(lac proAB) Δ(hsdMS mcrB) 5 (rk mk McrBC−): This strain is provided in the form of a bacterial culture containing 50% glycerol, non receptive cells, and stored at −70° C.; Streptavidin, freeze-dried powder 1.5 mg; Biotin: 10 mM 100 μL.
Depending on the number and types of target molecules that need to be simultaneously selected for library selection, the selection experiment is conducted on a single sterilized polystyrene culture dish, 12 or 24 well plates, and 96 well microplates. Each target molecule is coated with at least one plate (or well), and the amount given in the following method is the amount of the 60×15 mm culture dish, the content in parentheses is the amount of the plate, and the dosage of microplate is adjusted accordingly for other medium-sized wells. However, in each case, the number of added bacteriophages is the same: 1.5×10^11 virion. […]

[1] = molecular target: T1, cell surface antigen PSMA (Homo sapiens, UniProt Q04609); assay: Immunofluorescence detection of KHL peptide (FITC marker) on Lncap cell line; format: binding
T1 construct: endogenous in cells; host or cells: Lncap cells (PC3 cells as low-PSMA control)
T1 sequence (Q04609 whole entry): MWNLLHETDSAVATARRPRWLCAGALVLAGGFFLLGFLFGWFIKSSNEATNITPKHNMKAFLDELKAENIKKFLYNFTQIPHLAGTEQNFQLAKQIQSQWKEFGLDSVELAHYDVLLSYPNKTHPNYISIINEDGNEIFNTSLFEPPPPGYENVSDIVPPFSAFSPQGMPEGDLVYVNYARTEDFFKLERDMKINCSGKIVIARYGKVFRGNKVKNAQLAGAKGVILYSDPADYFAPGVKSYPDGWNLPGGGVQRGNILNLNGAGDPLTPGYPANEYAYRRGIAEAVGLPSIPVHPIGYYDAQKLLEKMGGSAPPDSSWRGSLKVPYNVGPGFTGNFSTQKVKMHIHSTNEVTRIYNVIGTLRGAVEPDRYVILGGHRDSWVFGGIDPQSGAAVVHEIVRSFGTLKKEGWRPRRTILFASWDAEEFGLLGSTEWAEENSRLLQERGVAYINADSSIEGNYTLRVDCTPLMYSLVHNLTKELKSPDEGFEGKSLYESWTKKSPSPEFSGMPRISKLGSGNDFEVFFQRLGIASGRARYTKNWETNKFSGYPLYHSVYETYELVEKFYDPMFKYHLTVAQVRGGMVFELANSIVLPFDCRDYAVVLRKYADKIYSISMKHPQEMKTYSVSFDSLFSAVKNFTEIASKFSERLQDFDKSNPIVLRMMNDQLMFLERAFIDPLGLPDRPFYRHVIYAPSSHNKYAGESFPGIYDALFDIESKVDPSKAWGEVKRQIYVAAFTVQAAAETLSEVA
Experimental: (§1) Immunofluorescence detection was performed on KHL peptides in Lncap cell lines with high PSMA expression and PC3 cell lines with low PSMA expression, using FITC as the fluorescent marker. The fluorescence detection of KHL peptide and Lncap cell line is shown in FIG. 1, and the fluorescence detection of KHL peptide and PC3 cell line is shown in FIG. 2.

[2] = tested on: PC3 cell lines with low PSMA expression; assay: Immunofluorescence detection of KHL peptide (FITC marker) on PC3 cell line; format: binding; details: FIG. 2
Experimental: as §1

PSMA, sequence (Q04609 whole entry, species assumed): as the sequence (Q04609 whole entry) above

## KHLHYHSSVRYG (also: FITC label, attachment site not given here) [FITC used as the fluorescent marker in immunofluorescence]
PSMA
  binding to PSMA found by peptide library screening: specifically binding to PSMA
[1]; Lncap (high PSMA) versus PC3 (low PSMA)
  specificity of binding of KHL to the cell surface antigen PSMA: high specificity
[1]; Lncap cell lines with high PSMA expression, FITC, FIG. 1
  cell surface fluorescence labeled by KHL: fluorescence displayed by KHL binding to the cell surface antigen PSMA
[2]
  cell surface fluorescence labeled by KHL: only staining of the nucleus
